Results published in publication doi:10.1101/2025.08.28.672867, “Catalytic pocket of Clr4 (Suv39h) methyltransferase serves as a substrate receptor for Cullin 4-dependent histone H3 ubiquitination” (bioRxiv, 2025).

T1: 6×His-MBP-Raf1 (S. pombe, UniProt O74910 1-638)
T1 construct: Raf1 (Rik1-associated factor 1, DDB2 homolog), S. pombe; Expressed from one bacmid with Raf2, Rik1 and Cul4 and purified with them; A TEV site lies between MBP and Raf1; also called Raf1-MBP; Raf1 (DDB2 homolog); source: Hi5 insect cells (baculovirus), purified (Ni-NTA, amylose, SEC) together with Raf2, Rik1 and Cul4; not shown: His6, N-terminal, kept; MBP, N-terminal, kept
T1 sequence (looked up): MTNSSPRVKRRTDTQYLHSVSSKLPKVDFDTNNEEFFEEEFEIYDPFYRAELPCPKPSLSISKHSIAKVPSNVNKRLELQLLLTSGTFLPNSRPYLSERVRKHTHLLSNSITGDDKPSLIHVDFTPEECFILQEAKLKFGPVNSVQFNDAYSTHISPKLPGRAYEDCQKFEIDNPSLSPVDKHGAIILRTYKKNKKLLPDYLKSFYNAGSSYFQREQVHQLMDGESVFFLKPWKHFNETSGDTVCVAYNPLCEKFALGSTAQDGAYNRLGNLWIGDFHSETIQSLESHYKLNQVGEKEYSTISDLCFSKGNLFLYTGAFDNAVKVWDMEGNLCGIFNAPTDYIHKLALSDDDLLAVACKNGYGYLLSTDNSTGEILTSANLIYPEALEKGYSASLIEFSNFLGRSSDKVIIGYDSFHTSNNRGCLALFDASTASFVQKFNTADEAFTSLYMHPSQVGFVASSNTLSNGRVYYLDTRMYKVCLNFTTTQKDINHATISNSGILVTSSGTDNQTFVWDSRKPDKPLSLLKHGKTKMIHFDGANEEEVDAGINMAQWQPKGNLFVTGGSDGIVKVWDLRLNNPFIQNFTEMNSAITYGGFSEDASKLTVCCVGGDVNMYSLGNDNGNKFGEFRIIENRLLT


Assays:
6×His-MBP-Raf1 = target: T1, 6×His-MBP-Raf1; assay: pull-down; MBP-Raf1 held on amylose resin and incubated with Clr4 FL or fragments (legend: 'MBP pulldown assays of CLRC subunits'); 1:1 molar ratio, 30 min on ice, resin 1 h at 4 °C; wash 20 mM HEPES pH 7.5, 150 mM NaCl, 0.02% Triton X-100; SDS-PAGE; conditions: both partners purified
[1] = target: T2, CLRC complex lacking Clr4 (CLRC^-Clr4): 6×His-MBP-Raf1, Raf2, Rik1 and Cul4 (S. pombe, UniProt O74910 1-638; O74560 1-636; Q10426 1-1040; O14122 1-734); assay: as above; conditions: both partners purified
T2 construct: Raf1 (DDB2 homolog), S. pombe; as the chain of m2; Raf2, S. pombe; as the chain of m3; Rik1 (DDB1 homolog), S. pombe; as the chain of m4; Cullin 4, S. pombe; as the chain of m5; also called four-subunit CLRC complex; CLRC minus Clr4; source: Hi5 insect cells (baculovirus, single bacmid), purified (Ni-NTA, amylose, SEC on Superose 6 Increase); not shown: His6, N-terminal, kept; MBP, N-terminal, …
T2 sequence (O74560 whole entry, chain 2 of 3): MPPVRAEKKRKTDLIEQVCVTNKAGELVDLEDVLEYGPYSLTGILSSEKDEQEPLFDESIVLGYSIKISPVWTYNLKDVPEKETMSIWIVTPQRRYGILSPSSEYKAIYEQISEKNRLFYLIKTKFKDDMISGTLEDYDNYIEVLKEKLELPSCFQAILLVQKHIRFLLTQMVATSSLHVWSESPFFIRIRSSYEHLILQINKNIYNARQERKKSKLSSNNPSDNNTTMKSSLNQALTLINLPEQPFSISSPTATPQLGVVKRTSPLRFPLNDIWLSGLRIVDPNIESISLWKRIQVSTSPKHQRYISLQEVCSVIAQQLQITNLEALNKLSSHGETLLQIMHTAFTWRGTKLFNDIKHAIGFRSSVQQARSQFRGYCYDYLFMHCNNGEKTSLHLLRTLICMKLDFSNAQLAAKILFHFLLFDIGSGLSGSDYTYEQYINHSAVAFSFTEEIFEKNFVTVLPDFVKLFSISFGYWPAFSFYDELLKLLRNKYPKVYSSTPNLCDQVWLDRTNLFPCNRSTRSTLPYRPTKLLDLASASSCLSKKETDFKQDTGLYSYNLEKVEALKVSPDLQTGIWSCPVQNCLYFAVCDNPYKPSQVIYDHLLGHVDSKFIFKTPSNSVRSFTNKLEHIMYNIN
T2 sequence (Q10426 whole entry, chain 3 of 3): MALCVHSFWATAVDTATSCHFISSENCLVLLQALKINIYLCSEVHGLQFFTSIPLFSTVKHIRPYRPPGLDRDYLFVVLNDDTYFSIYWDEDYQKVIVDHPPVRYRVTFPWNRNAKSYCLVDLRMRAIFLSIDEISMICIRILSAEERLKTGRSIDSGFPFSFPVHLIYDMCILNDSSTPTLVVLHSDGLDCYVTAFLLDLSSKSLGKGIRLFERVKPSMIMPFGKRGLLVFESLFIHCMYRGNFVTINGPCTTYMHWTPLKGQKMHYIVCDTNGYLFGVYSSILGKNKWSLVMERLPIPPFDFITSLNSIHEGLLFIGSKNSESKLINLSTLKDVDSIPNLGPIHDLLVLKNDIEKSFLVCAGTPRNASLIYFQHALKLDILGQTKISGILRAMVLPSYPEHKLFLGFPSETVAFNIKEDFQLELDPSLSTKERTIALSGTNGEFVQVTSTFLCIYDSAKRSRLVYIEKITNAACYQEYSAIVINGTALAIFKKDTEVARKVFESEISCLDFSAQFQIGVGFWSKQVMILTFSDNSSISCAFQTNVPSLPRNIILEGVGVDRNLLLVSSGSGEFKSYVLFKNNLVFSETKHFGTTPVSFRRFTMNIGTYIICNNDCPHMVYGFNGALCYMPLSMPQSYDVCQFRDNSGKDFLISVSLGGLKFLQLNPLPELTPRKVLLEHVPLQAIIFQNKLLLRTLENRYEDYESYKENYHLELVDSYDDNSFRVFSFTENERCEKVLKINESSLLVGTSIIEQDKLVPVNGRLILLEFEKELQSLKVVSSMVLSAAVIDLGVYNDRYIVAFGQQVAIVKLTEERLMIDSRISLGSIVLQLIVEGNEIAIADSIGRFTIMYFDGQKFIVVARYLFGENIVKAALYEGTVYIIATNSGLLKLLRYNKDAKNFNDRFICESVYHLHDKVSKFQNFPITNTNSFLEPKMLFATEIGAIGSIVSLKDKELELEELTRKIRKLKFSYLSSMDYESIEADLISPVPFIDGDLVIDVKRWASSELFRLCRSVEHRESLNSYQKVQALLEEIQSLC
T2 sequence (O14122 whole entry, chain 4 of 3): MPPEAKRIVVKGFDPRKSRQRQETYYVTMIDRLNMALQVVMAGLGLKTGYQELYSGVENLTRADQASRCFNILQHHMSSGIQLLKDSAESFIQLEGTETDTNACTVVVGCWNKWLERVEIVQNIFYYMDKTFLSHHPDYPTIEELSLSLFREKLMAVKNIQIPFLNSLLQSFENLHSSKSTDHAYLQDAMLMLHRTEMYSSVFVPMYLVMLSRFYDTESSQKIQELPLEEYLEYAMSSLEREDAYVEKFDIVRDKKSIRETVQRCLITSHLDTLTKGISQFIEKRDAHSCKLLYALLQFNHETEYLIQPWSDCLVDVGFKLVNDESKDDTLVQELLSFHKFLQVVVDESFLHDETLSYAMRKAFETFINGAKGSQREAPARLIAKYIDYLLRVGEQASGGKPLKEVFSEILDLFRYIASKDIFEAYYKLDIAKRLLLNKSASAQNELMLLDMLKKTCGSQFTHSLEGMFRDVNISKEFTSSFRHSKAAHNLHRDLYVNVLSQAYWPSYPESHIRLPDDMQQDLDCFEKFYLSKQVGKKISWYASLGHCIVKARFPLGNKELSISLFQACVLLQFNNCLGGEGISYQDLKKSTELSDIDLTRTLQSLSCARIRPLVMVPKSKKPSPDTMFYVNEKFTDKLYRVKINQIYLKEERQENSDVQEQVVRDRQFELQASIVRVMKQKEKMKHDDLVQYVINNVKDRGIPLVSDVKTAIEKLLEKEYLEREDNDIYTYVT

| Binder | binding result (6×His-MBP-Raf1) | binding result [1] |
| --- | --- | --- |
| Clr4 ΔSET (amino acids 1–192) (domain or fragment, S. pombe, UniProt O60016 1-192, looked up, Clr4, S. pombe, chromodomain and hinge region, amino acids 1-192; also called GST-Clr4 ΔSET) MSPKQEEYEVERIVDEKLDRNGAVKLYRIRWLNYSSRSDTWEPPENLSGCSAVLAEWKRRKRRLKGSNSDSDSPHHASNPHPNSRQKHQHQTSKSVPRSQRFSRELNVKKENKKVFSSQTTKRQSRKQSTALTTNDTSIILDDSLHTNSKKLGKTRNEVKEESQKRELVSNSIKEATSPKTSSILTKPRNPS | binds | – |
| Clr4N-Set2 (Clr4 chromodomain-hinge fused to the SET domain of S. pombe Set2) (other, UniProt O60016 1-192, looked up, Clr4, S. pombe, chromodomain and hinge region, amino acids 1-192 (GST-Clr4 ΔSET); Set2 H3K36 methyltransferase, S. pombe, SET domain, amino acids 90-330, fused to the C-terminus of Clr4 ΔSET; also called GST-Clr4 CD-Hinge-Set2; GST-Clr4N-Set2) MSPKQEEYEVERIVDEKLDRNGAVKLYRIRWLNYSSRSDTWEPPENLSGCSAVLAEWKRRKRRLKGSNSDSDSPHHASNPHPNSRQKHQHQTSKSVPRSQRFSRELNVKKENKKVFSSQTTKRQSRKQSTALTTNDTSIILDDSLHTNSKKLGKTRNEVKEESQKRELVSNSIKEATSPKTSSILTKPRNPSLFHHLDSAKDKALTTFEEIQECQYASANIGKPPENEAMICDCRPHWVDGVNVACGHGSNCINRMTSIECTDEDNVCGPSCQNQRFQRHEFAKVDVFLTEKKGFGLRADANLPKDTFVYEYIGEVIPEQKFRKRMRQYDSEGIKHFYFMMLQKGEYIDATKRGSLARFCNHSCRPNCYVDKWMVGDKLRMGIFCKRDIIRGEELTFDYNVDRYGAQAQPCYCGEPCCVGYIGGKTQTEAQSK | binds | binds |
